This note sets out measurements from paper PMC5797217, “UFD-2 is an adaptor-assisted E3 ligase targeting unfolded proteins” (Nature Communications, 2018).

Data set [1] concerns the molecule itself. Description: crystal structure; crystal form UNC-45_(717), space group P6_(1)22, 3.8 Å; molecules form filaments in the crystal lattice.
Data set [2] concerns the target T1, UNC-45 full-length, His6-tagged (C. elegans, UniProt G5EG62 1-961).
T1 construct: UNC-45, C. elegans, full-length (961 residues by the printed limits of the deletion constructs); also called UNC-45-His6; wild-type, full-length protein; source: E. coli BL21-DE3-RIL, purified (NiNTA, SEC); not shown: His6, C-terminal, kept
T1 sequence (looked up): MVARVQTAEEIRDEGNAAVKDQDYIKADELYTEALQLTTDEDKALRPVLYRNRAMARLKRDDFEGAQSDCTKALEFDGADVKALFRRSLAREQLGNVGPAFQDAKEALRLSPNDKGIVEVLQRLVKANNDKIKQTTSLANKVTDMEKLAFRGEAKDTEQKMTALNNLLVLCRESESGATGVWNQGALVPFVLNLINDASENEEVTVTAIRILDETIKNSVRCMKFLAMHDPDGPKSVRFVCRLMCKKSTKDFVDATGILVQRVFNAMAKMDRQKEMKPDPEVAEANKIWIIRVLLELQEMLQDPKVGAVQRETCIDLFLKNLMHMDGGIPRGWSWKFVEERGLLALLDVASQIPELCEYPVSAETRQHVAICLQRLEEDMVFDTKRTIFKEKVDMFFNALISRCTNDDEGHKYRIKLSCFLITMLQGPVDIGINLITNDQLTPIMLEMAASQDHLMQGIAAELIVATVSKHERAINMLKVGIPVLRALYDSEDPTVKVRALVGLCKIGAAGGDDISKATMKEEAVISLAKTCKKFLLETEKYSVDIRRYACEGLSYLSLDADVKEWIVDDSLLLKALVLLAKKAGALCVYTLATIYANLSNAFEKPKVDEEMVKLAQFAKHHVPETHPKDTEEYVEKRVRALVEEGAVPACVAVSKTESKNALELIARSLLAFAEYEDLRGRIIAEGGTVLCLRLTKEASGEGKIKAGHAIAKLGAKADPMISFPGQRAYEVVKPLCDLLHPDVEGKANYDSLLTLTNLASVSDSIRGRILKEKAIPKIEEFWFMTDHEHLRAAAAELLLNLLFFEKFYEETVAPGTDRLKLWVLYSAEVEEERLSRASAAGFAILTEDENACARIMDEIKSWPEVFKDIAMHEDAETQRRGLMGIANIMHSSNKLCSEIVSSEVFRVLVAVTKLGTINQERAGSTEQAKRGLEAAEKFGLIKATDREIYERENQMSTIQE
The experiment in a line: pull-down; three proteins: His6-tagged UNC-45 pre-incubated with myosin (MHC-B motor domain) 60 min 27 °C, then with Strep-UFD-2 60 min 30 °C; Strep-Tactin beads; 5 µM protein; 20 mM Tris pH 7.5, 50 mM NaCl; Coomassie. The note with it: both partners purified.

B1: UNC-45 wild type, crystallised (crystal form UNC-45_(717)) (natural protein, C. elegans, UniProt G5EG62 1-961, looked up)
chain: MVARVQTAEEIRDEGNAAVKDQDYIKADELYTEALQLTTDEDKALRPVLYRNRAMARLKRDDFEGAQSDCTKALEFDGADVKALFRRSLAREQLGNVGPAFQDAKEALRLSPNDKGIVEVLQRLVKANNDKIKQTTSLANKVTDMEKLAFRGEAKDTEQKMTALNNLLVLCRESESGATGVWNQGALVPFVLNLINDASENEEVTVTAIRILDETIKNSVRCMKFLAMHDPDGPKSVRFVCRLMCKKSTKDFVDATGILVQRVFNAMAKMDRQKEMKPDPEVAEANKIWIIRVLLELQEMLQDPKVGAVQRETCIDLFLKNLMHMDGGIPRGWSWKFVEERGLLALLDVASQIPELCEYPVSAETRQHVAICLQRLEEDMVFDTKRTIFKEKVDMFFNALISRCTNDDEGHKYRIKLSCFLITMLQGPVDIGINLITNDQLTPIMLEMAASQDHLMQGIAAELIVATVSKHERAINMLKVGIPVLRALYDSEDPTVKVRALVGLCKIGAAGGDDISKATMKEEAVISLAKTCKKFLLETEKYSVDIRRYACEGLSYLSLDADVKEWIVDDSLLLKALVLLAKKAGALCVYTLATIYANLSNAFEKPKVDEEMVKLAQFAKHHVPETHPKDTEEYVEKRVRALVEEGAVPACVAVSKTESKNALELIARSLLAFAEYEDLRGRIIAEGGTVLCLRLTKEASGEGKIKAGHAIAKLGAKADPMISFPGQRAYEVVKPLCDLLHPDVEGKANYDSLLTLTNLASVSDSIRGRILKEKAIPKIEEFWFMTDHEHLRAAAAELLLNLLFFEKFYEETVAPGTDRLKLWVLYSAEVEEERLSRASAAGFAILTEDENACARIMDEIKSWPEVFKDIAMHEDAETQRRGLMGIANIMHSSNKLCSEIVSSEVFRVLVAVTKLGTINQERAGSTEQAKRGLEAAEKFGLIKATDREIYERENQMSTIQE
notes: UNC-45, C. elegans, wild-type full-length protein used for crystallisation
As for B1, the binding result in data set [1] is “binds”.

B2: C. elegans MHC-B motor domain (1-790), His6-tagged (domain or fragment, UniProt P02566 1-790, looked up)
chain: MEHEKDPGWQYLRRTREQVLEDQSKPYDSKKNVWIPDPEEGYLAGEITATKGDQVTIVTARGNEVTLKKELVQEMNPPKFEKTEDMSNLSFLNDASVLHNLRSRYAAMLIYTYSGLFCVVINPYKRLPIYTDSCARMFMGKRKTEMPPHLFAVSDEAYRNMLQDHENQSMLITGESGAGKTENTKKVICYFAAVGASQQEGGAEVDPNKKKVTLEDQIVQTNPVLEAFGNAKTVRNNNSSRFGKFIRIHFNKHGRLASCDIEHYLLEKSRVIRQAPGERCYHIFYQIYSDFRPELKKELLLDLPIKDYWFVAQAELIIDGIDDVEEFQLTDEAFDILNFSAVEKQDCYRLMSAHMHMGNMKFKQRPREEQAEPDGTDEAEKASNMYGIGCEEFLKALTKPRVKVGTEWVSKGQNCEQVNWAVGAMAKGLYSRVFNWLVKKCNLTLDQKGIDRDYFIGVLDIAGFEIFDFNSFEQLWINFVNEKLQQFFNHHMFVLEQEEYAREGIQWVFIDFGLDLQACIELIEKPLGIISMLDEECIVPKATDLTLASKLVDQHLGKHPNFEKPKPPKGKQGEAHFAMRHYAGTVRYNCLNWLEKNKDPLNDTVVSAMKQSKGNDLLVEIWQDYTTQEEAAAKAKEGGGGGKKKGKSGSFMTVSMLYRESLNNLMTMLNKTHPHFIRCIIPNEKKQSGMIDAALVLNQLTCNGVLEGIRICRKGFPNRTLHPDFVQRYAILAAKEAKSDDDKKKCAEAIMSKLVNDGSLSEEMFRIGLTKVFFKAGVLAHLEDIRDEKL
notes: Myosin heavy chain B (MHC-B, UNC-54), C. elegans muscle myosin, motor domain residues 1-790, cloned from cDNA into pACEBac1; also called myosin; MHC-B head domain; source: High Five insect cells, purified (NiNTA, Streptactin wash fractions, SEC) or co-purified with UNC-45; not shown: His6, C-terminal, kept
In the case of B2, the binding result in data set [2] is on record as “binds”.
